Reference: patent US20220056094A1 (JIANGSU HENGRUI MEDICINE, published 2022)
Numbering of substitutions follows the chain as printed. Names may count otherwise. Like-named read-outs stand apart in the source and are kept apart here.

B1: IL-2-05 (G27C/F78C) (ligand)
chain: MAPTSSSTKKTQLQLEHLLLDLQMILNCINNYKNPKLTRMLTFKFYMPKKATELKHLQCLEEELKPLEEVLNLAQSKNCHLRPRDLISNINVIVLELKGSETTFMCEYADETATIVEFLNRWITFAQSIISTLT
notes: The entry already carries the mutations and C125A and begins with M. Made in E. coli
B2: PEGylated IL-2-10 (ligand)
chain: B1 chain with N27Q, C28G, N31S, F43A, L73G, C79F
modifications: mono-PEGylated with 20 kDa mPEG-butyraldehyde (sodium cyanoborohydride); site not stated
notes: also called PEG-IL-2-10
B3: IL-2-24 (N26Q/N29S/N88R) (ligand)
chain: B1 chain with N27Q, C28G, N30S, C79F, N89R
B4: PEGylated IL-2-22 (ligand)
chain: B1 chain with N27Q, C28G, N30S, F43A, N72Q, L73G, C79F
modifications: mono-PEGylated with 20 kDa mPEG-butyraldehyde (sodium cyanoborohydride); site not stated
notes: also called PEG-IL-2-22
B5: PEGylated IL-2-23 (ligand)
chain: MAPTSSSTKKTCLQLEHLLLDLQMILNGIQSMHIDATLYMPKKATELKHLQCLEEELKPLEEVLNLAQSKNFHLRPRDLISNINVIVLELKGSETTFMCEYADETATIVEFLNRWITFAQSIISTCT
modifications: mono-PEGylated with 20 kDa mPEG-butyraldehyde (sodium cyanoborohydride); site not stated
notes: also called PEG-IL-2-23

Experiments:
[1] = target: T1, high-affinity receptor IL-2Rα/β/γ on CTLL2 cells (mouse-derived cell line) (mouse, UniProt P01590 22-268; P16297 27-539; P34902 23-369); assay: cell-based or functional assay
T1 sequence (looked up) 1: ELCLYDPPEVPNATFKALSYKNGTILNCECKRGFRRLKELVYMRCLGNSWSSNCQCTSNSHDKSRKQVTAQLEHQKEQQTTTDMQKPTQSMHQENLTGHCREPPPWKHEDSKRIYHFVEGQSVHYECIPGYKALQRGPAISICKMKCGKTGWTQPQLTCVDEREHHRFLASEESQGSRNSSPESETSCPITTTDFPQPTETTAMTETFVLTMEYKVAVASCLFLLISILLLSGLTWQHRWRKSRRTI
T1 sequence (looked up) 2: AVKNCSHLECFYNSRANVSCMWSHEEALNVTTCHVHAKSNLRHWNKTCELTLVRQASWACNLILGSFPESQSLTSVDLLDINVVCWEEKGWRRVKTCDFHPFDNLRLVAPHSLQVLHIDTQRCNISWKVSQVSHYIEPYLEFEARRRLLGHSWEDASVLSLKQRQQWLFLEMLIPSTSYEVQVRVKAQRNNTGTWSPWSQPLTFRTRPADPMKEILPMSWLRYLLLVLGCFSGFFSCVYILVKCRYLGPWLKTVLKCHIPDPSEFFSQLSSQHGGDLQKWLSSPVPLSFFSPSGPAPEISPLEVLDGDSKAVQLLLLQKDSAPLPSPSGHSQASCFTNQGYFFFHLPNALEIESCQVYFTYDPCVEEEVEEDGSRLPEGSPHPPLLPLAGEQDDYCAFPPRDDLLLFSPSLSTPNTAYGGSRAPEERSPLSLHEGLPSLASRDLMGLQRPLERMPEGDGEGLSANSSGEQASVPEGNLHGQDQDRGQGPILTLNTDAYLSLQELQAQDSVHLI
T1 sequence (looked up) 3: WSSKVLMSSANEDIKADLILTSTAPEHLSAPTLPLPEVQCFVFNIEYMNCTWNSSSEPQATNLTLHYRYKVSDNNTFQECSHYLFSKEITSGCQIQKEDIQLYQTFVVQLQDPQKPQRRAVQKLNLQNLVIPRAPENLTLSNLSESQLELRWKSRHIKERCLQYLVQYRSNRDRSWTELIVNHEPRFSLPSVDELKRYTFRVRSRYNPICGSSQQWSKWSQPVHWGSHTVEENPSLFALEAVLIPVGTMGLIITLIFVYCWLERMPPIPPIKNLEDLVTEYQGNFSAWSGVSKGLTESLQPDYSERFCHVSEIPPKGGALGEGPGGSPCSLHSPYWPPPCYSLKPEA

[2] = target: T2, his-tagged human IL-2Rα recombinant protein (SinoBiological, Cat #10165-H08H) (human, UniProt P01589 22-213); assay: ELISA, his-tagged IL-2Rα coated, HRP anti-IL-2 polyclonal detection
T2 construct: Bought protein; also called IL-2Rα (His Tag)
T2 sequence: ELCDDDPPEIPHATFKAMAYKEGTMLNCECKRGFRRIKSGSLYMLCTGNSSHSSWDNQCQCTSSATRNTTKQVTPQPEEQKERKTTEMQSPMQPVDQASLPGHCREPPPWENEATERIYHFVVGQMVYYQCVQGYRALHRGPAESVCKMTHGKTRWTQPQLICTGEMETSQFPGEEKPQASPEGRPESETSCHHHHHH
Protocol: 96-well microtiter plate was coated with 2 μg/mL his-tagged IL-2Rα recombinant protein (SinoBiological, Cat #10165-H08H), and incubated overnight at 4° C. The plate was washed with washing solution for three times, 250 μl per well. For each time of washing, the plate was shaken for 10 seconds to ensure sufficient washing. 200 μl/well blocking solution was added and incubated at room temperature for 2 hours. The plate was washed with washing solution for three times, 250 μl per well. For each time of washing, the plate was shaken for 10 seconds to ensure sufficient washing. […] The plate was incubated for 1 hour at room temperature. The plate was washed with washing solution for three times, 250 μl per well. […] The plate was incubated for 1 hour at room temperature. The plate was washed with washing solution for three times, 250 μl per well. 100 μl TMB was added to each well, and the reaction was performed for 15 minutes in the dark. 50 μl of 0.16 M sulfuric acid was added to each well.

[3] = target: T3, IL-2Rβ/γ-Fc heterodimer (IL-2Rβ-Fc-hole with IL-2Rγ-Fc-knob); assay: SPR (Biacore), IL-2Rβ/γ-Fc captured on Protein A chip, 1:1 model
T3 construct: Co-expressed in HEK293 cells and purified with Protein A and Superdex 200
Protocol: (§1) The Protein A sensor chip (GE, Cat #29127556) of the Biacore instrument (Biacore T200, GE) was used to capture IL-2Rβ/γ-Fc, wherein IL-2Rβ/γ-Fc was diluted with 1×HBS-EP to 1 μg/mL, and flowed at a flow rate of 10 μL/min for 30 seconds. […] The Biacore instrument (Biacore X100, GE) was used to detect the reaction in real time, to obtain association and dissociation curves. After each cycle of dissociation was completed, the chip was washed and regenerated with 10 mM Gly-HCl pH 1.5.
Target sequence in this assay (chain, as listed by the source limits assumed, chain 1 of 2): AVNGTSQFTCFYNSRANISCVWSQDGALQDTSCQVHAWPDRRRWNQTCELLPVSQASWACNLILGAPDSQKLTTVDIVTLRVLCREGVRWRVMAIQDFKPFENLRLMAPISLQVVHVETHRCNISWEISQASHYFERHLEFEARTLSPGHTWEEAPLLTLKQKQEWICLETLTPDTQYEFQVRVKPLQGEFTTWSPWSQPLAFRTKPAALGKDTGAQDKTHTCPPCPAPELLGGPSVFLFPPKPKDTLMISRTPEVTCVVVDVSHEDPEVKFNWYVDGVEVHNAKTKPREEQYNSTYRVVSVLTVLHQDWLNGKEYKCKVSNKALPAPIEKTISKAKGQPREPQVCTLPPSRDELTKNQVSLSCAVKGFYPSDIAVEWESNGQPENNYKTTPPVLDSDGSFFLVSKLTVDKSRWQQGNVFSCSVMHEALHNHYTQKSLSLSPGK
Target sequence in this assay (chain, as listed by the source limits assumed, chain 2 of 2): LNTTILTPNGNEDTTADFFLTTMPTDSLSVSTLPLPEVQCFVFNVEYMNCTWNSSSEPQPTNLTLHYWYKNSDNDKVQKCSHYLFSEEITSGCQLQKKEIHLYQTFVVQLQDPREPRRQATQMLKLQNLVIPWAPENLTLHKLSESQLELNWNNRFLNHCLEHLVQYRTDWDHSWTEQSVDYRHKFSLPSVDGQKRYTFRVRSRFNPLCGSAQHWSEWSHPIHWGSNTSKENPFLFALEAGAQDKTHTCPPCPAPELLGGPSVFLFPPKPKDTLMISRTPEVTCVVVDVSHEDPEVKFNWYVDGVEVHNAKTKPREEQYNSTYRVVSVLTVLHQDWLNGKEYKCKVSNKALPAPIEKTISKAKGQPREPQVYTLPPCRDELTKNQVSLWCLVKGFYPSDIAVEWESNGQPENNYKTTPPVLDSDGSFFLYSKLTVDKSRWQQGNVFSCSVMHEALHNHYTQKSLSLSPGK

[4] = target: T1, high-affinity receptor IL-2Rα/β/γ on …; assay: cell-based or functional assay; remark: listed apart in the source
[5] = target: T4, IL-2 receptor IL-2Rα/β/γ on human peripheral blood Treg cells (human, UniProt P01589 22-272; P14784 27-551; P31785 23-369); assay: cell-based or functional assay
T4 sequence (looked up) 1: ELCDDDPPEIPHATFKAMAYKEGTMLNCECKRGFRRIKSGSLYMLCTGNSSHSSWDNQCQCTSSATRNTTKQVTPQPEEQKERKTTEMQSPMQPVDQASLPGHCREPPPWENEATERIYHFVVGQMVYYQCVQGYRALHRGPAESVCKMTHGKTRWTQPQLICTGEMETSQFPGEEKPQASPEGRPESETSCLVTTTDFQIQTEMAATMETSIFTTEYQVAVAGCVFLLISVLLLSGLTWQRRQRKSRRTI
T4 sequence (looked up) 2: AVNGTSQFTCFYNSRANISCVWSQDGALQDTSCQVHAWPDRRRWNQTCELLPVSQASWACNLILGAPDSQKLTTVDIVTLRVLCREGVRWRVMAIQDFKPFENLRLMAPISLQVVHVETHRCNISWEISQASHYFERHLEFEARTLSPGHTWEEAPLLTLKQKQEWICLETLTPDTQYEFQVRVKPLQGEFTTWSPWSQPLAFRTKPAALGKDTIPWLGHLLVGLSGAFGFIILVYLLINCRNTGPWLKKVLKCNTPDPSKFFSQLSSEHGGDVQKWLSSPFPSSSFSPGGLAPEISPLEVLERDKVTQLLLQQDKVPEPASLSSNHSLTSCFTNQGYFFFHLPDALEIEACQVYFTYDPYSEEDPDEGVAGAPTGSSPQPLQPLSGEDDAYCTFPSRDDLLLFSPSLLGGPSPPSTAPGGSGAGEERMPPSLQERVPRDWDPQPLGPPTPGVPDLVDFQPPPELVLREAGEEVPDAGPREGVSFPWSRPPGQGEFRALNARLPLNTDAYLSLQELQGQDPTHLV
T4 sequence (looked up) 3: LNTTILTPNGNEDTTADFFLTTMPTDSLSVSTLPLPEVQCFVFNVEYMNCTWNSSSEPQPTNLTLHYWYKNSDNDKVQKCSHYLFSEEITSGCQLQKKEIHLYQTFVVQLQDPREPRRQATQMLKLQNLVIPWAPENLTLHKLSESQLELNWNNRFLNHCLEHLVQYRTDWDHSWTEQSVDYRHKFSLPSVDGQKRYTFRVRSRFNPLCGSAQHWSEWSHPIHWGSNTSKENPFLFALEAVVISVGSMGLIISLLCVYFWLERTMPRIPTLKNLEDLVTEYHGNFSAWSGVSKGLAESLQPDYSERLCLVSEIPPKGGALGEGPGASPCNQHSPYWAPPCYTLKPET

[6] = target: T5, medium-affinity receptor IL-2Rβ/γ on human cells (Mo7e cell line; human CD8+T and NK cells) (human, UniProt P14784 27-551; P31785 23-369); assay: cell-based or functional assay
T5 sequence (looked up) 1: T4 sequence (looked up) 2
T5 sequence (looked up) 2: T4 sequence (looked up) 3

[7] = target: T2, his-tagged human IL-2Rα recombinant …; assay: BLI (Octet RED96e), His-tagged IL-2Rα on HIS1K sensor
Protocol: The HIS1K biosensor (Fortebio, 18-5120) was immersed into 200 μL buffer (PBS, pH 7.4, 0.02% tween-20, 0.1% BSA) for 10 minutes, for wetting treatment. Then, human IL-2Rα with His tag (SinoBiological, Cat #10165-H08H) was dissolved in PBS pH 7.4, 0.02% tween-20 and 0.1% BSA, and the sensor was placed in 200 μL of such solution. The sensor was placed in 200 μL buffer (PBS pH 7.4, 0.02% tween-20, 0.1% BSA) to wash off the excess IL-2Rα.

[8] = target: T3, IL-2Rβ/γ-Fc heterodimer (IL-2Rβ-Fc-hole …); assay: SPR (Biacore), IL-2Rβ/γ-Fc captured on Protein A chip
Protocol: as §1

[9] = target: T5, medium-affinity receptor IL-2Rβ/γ on …; assay: cell-based or functional assay; remark: listed apart in the source
[10] = target: T5, medium-affinity receptor IL-2Rβ/γ on …; assay: cell-based or functional assay; remark: listed apart in the source
[11] = target: T2, his-tagged human IL-2Rα recombinant …; assay: BLI (Octet RED96e), His-tagged IL-2Rα on HIS1K sensor; column printed as 'affinity (nM)'

Binder | relative biological activity (CTLL2 cell proliferation) [1] | EC50 [2] | Kd [3] | koff [3] | kon [3] | EC50 (CTLL2 cell proliferation) [4] | relative biological activity (CTLL2 cell proliferation) [4] | EC50 (STAT5 phosphorylation in human Treg cells) [5] | relative biological activity (STAT5 phosphorylation in human Treg cells) [5] | EC50 (Mo7e cell proliferation) [6] | relative biological activity (Mo7e cell proliferation) [6] | binding result [7] | Kd [8] | koff [8] | kon [8] | EC50 (STAT5 phosphorylation in human CD8+T cells) [9] | relative activity (STAT5 phosphorylation in human CD8+T cells) [9] | EC50 (STAT5 phosphorylation in human NK cells) [10] | relative activity (STAT5 phosphorylation in human NK cells) [10] | Kd [11]
B1 | 229% | 0.6 nM | 0.288 nM | 9.68e-05 s⁻¹ | 336000 M⁻¹ s⁻¹ | – | – | – | – | – | – | – | – | – | – | – | – | – | – | –
B2 | – | – | – | – | – | 35.3 nM | 0.2% | 2.65 nM | 0.02% | 13.2 nM | 19% | no binding (tested: 133.3 nM) | 0.86 nM | 0.00119 s⁻¹ | 1.38e+06 M⁻¹ s⁻¹ | 8.97 nM | 26% | 2 nM | 24% | –
B3 | – | – | – | – | – | – | – | 0.209 nM | 0.2% | – | – | – | – | – | – | – | – | – | – | 11.8 nM
B4 | – | – | – | – | – | 39.2 nM | 0.1% | – | – | 34.8 nM | 7% | no binding (tested: 133.3 nM) | 3.54 nM | 0.000549 s⁻¹ | 155000 M⁻¹ s⁻¹ | – | – | – | – | –
B5 | – | – | – | – | – | – | – | 4.24 nM | 0.01% | 23.4 nM | 10% | no binding (tested: 133.3 nM) | 1.86 nM | 0.000649 s⁻¹ | 350000 M⁻¹ s⁻¹ | 14.4 nM | 16% | 2.88 nM | 17% | –
